From article PMC6345565

Target: PICK1 WT without SNAP-tag (rat (Rattus norvegicus)), Q9EP80
Experiment: fluorescence polarisation; competition: increasing unlabelled peptide, fixed 70% saturating PICK1 with OrG DAT C13; 50 mM Tris pH 7.4, 125 mM NaCl, 1 mM DTT, 0.01% Triton X-100; on ice; apparent Ki

Ki: 2.1 µM
Binder: EVRQFTLRHWLKV (modifications not checked) [unlabeled peptide of the DAT C-terminus (competitor in fluorescence polarisation)]
